The test addresses GST-tagged human FcRn (human; Schistosoma japonicum) (UniProt P55899). Put plainly: ELISA pH 6.0, h9C12 variant captured on AdV5 hexon, GST-hFcRn detected with anti-GST-HRP. Background: An ELISA detects its analyte on a solid surface through an enzyme-linked reagent.

Sequence of GST-tagged human FcRn (human; Schistosoma japonicum) (P55899 24-297, chain 1 of 2): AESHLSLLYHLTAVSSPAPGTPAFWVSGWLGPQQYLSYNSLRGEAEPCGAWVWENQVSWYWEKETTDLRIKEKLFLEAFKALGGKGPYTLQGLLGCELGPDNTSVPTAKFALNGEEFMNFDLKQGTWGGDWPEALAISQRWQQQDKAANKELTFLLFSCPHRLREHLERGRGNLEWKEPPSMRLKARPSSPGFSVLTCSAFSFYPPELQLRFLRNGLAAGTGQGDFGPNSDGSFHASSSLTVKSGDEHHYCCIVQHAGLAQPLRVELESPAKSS
Sequence of GST-tagged human FcRn (human; Schistosoma japonicum) (P61769 21-119, chain 2 of 2, further chain): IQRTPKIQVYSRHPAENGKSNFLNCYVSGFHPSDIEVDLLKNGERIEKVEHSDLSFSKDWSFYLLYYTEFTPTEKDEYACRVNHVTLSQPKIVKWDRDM

B1: h9C12 IgG3(b)-Q311R/N434W/M428E/R435H (antibody, part only; not given: variable domains, not shown: another chain or arm of the molecule)
constant: ASTKGPSVFPLAPCSRSTSGGTAALGCLVKDYFPEPVTVSWNSGALTSGVHTFPAVLQSSGLYSLSSVVTVPSSSLGTQTYTCNVNHKPSNTKVDKRVELKTPLGDTTHTCPRCPEPKSCDTPPPCPRCPEPKSCDTPPPCPRCPEPKSCDTPPPCPRCPAPELLGGPSVFLFPPKPKDTLMISRTPEVTCVVVDVSHEDPEVQFKWYVDGVEVHNAKTKPREEQYNSTFRVVSVLTVLHRDWLNGKEYKCKVSNKALPAPIEKTISKTKGQPREPQVYTLPPSREEMTKNQVSLTCLVKGFYPSDIAVEWESSGQPENNYNTTPPMLDSDGSFFLYSKLTVDKSRWQQGNIFSCSVEHEALHWHFTQKSLSLSPGK
In turn, B1 registered a Fold change from WT (ELISA) pH 6.0 of 3 fold.

Source of the values: patent US20190077883A1.
